The record followed here is US20200157542, “Bispecific Aptamer for Treating Cancer” (Augusta University Research Institute, Inc., published 2020).

Data set [1] deals with human serum albumin (HSA) (human, UniProt P02768 P02768:25-609). Description: ELONA; immobilized HSA control, no positive signal. The conditions noted are these: label: 3'-Cy5 on EpCAM strand for flow cytometry; two aptamers joined by 23 bp dsRNA adaptor with 2-3 unpaired base linkers. In general terms: Flow cytometry measures light scatter and fluorescence of single cells or particles in a stream.
human serum albumin (HSA), sequence (P02768 25-609, one chain of several): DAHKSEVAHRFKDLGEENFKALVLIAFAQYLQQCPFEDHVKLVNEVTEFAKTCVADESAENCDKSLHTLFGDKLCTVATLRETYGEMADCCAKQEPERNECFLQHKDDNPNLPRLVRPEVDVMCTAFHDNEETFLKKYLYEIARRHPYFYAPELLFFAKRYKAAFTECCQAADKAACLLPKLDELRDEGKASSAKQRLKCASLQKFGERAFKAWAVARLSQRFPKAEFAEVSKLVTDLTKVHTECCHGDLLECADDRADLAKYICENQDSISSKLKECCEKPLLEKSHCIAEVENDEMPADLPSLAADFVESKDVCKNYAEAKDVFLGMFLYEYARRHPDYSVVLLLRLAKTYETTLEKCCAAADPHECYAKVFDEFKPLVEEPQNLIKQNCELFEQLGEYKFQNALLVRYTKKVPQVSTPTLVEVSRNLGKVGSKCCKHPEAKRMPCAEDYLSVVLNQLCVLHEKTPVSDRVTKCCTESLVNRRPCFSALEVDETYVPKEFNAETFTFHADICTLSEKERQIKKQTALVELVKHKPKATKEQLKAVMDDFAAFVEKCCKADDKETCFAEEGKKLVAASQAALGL

The target in data set [2] is T1, EpCAM (human, UniProt P16422 P16422:24-265).
T1 sequence: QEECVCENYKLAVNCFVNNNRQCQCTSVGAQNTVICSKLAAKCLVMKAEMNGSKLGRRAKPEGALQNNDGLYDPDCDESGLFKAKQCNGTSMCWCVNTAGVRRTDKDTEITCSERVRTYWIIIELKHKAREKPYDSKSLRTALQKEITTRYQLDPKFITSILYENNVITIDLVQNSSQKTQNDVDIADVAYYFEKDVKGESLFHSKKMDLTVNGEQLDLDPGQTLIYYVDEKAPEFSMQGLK
Put plainly: ELONA; bridging of 1 uM free EpCAM to plate-immobilized CD44; simple mixture of the two aptamers gave background only. The conditions noted are these: tags: Thermo Fisher Scientific; label: 3'-Cy5 on EpCAM strand for flow cytometry; two aptamers joined by 23 bp dsRNA adaptor with 2-3 unpaired base linkers. The protocol:
Serially diluted recombinant human CD44 protein (0-500 nM) was loaded into 96-well microtiter plates at 50 μg/well in triplicates and incubated overnight at 4° C. Plates were further blocked with 5% BSA/sperm DNA (500 μg/ml)/yeast tRNA (500 μg/ml)/0.05% Tween-20 in PBS/T buffer overnight. CD44-EpCAM conjugates or simply mixed CD44 and EpCAM aptamers were incubated with 1 μM recombinant human EpCAM for 4 h at room temperature. For simply mixed CD44 and EpCAM, prior putting CD44 and EpCAM aptamers together, CD44 aptamer was blocked with ssDNA (5′-[…]-3′) (SEQ ID NO: 11). […] Detection of HRP was performed by incubating with 100 µL/well soluble Turbo TMB-ELISA substrate for 5 min, then reaction was quenched with 100 μl/well Stop solution and the absorbance at 450 nm was measured using TECAN Infinite M 200 plate reader.
The binding of bispecific CD44-EpCAM aptamer was examined by ELISA (FIG. 1B). […] As expected (FIG. 1C), CD44-EpCAM bispecific aptamers successfully linked to plate-immobilized CD44 protein and free EpCAM proteins, yielding CD44 protein concentration-dependent positive signals, whereas only the background signal was detected in a control experiment with a simple mixture of CD44 aptamer and EpCAM aptamer. […]

B1: CD44-EpCAM bispecific aptamer (ssRNA)
RNA 1: GGGAUGGAUCCAAGCUUACUGGCAUCUGGAUUUGCGCGUGCCAGAAUAAAGAGUAUAACGUGUGAAUGGGAAGCUUCGAUAGGAAUUCGGAAAAGCUUGUUCAGGAGAUGAAAUU
RNA 2: GCGACUGGUUACCCGGUCGUAAAAUUUCAUCUCCUGAACAAGCUU
modifications: RNA (U for T in printed DNA template), 2'-F pyrimidines throughout
As for B1, the binding result in data set [1] was “no binding”; in data set [2] it was “binds”.
